In patent US8440629B2, “Cyclic receptor-associated protein (RAP) peptides” (Raptor Pharmaceuticals Inc., priority 2007, dated 2013):

Molecular target: T1, MAT CR34 (Homo sapiens, UniProt Q9Y5Y6)
T1 construct: MAT CR34 (ST14 CR34), amino acids 525-602; made in house; host or cells: E. coli BL21(DE3) CodonPlus-RIPL, pET30(+)a
T1 sequence (Q9Y5Y6 525-602): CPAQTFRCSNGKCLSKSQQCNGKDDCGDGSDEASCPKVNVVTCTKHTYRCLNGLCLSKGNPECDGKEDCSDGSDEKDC
Test: Solid phase binding assay
Details: separate set of experiments

binding (in words): undetectable
B1: RAP d3: third domain of human RAP, amino acids 201-319 of mature RAP, bacterially expressed with hexahistidine and S-peptide tags (SEQ ID NO: 92) (protein, listed as Homo sapiens)
chain: LDRLRRVSHQGYSTEAEFEEPRVIDLWDLEQSANLTDKELEAFREELKHFEAKIEKHNHYQKQLEIAHEKLRHAESVGDGERVSRSREKHALLEGRTKELGYTVKKHLQDLSGRISRAR
modifications: hexahistidine and S-peptide tags
